Publication doi:10.1101/2025.08.11.669711

Target: UCH37•RPN13 (UniProt Q16186)
Experiment: steady-state enzyme inhibition kinetics; cleavage of K6/K48 tri-Ub by UCH37•RPN13 (0.5 μM) with varied Nb-ncS1; 50 mM HEPES pH 7.5, 50 mM NaCl, 1 mM DTT; 37 °C; competitive inhibition fit

UCH37•RPN13, sequence (Q16186 whole entry, looked up): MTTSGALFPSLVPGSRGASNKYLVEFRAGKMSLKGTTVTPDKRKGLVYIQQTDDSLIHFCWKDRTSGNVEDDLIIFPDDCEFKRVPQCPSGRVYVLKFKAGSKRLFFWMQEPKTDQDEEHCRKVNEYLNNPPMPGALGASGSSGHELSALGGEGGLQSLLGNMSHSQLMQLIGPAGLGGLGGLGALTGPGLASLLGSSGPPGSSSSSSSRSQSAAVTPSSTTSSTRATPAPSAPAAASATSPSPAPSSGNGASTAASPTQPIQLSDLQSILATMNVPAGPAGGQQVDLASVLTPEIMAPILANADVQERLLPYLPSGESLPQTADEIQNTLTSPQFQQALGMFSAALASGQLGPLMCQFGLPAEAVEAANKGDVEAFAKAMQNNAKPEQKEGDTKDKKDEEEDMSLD

Ki: 120 nM
B1: Nb-ncS1 (His-tagged) (VHH)
VHH: RVQLQESGGGLVQAGGSLRLSCAASGYIFRSYRMGWYRQAPGKERELVAAIGLGGNTYYADSVKGRFTISRDNAKNTVYQQMNSLKPEDTAVYYCAALYGKPPAFSPFPYWGQGTQVTVSS
